According to patent JP2019041668A:
Numbering of substitutions follows the chain as printed.

B1: モノクローナル抗体 6B3 (antibody, V domains shown)
VH: VKLQQSGAELVKPGASVKLSCKASGYTFTSYWMHWVKQRPGQGLEWIGEINPSNGRSNYKEKFKFKATLTVDKSSRTAYMQLSSLTSEDSAVYYCARGASWFAYWGQGTTVTVSS
VL: QIVLTQSPAIMSASPGEKVTISCSASSSVSYMYWYQQKPGSSPKPWIYRTSNLASGVPARFSGSGSGTSYSLTISSMEAEDAATYYCQQYHSYPRTFGGGTKLEIKR
B2: モノクローナル抗体 11G4 (antibody, V domains shown)
VH: B1 VH with Q5E, A15T, S84R
VL: ENVLTQSPTIMAASLGQKVTMTCSATSNVSSSYLHWYQQKSGASPKPLIHRTSDLASGVPTRFSGSGSGTSYSLTITSVEAEDDATYYCQQWSGYPFTFGAGTKLELKR

Experiments:
[1] = biological target: グリセルアルデヒド由来AGEs含有マウス血清アルブミン (Glycer-AGEs-MSA) (mouse) (UniProt P07724); experiment: SPR, Biacore T200; Glycer-AGEs-MSA amine-coupled on CM5 chip, antibody 0.001-100 nM as analyte
UniProt P07724, sequence (P07724 25-608, form in doubt): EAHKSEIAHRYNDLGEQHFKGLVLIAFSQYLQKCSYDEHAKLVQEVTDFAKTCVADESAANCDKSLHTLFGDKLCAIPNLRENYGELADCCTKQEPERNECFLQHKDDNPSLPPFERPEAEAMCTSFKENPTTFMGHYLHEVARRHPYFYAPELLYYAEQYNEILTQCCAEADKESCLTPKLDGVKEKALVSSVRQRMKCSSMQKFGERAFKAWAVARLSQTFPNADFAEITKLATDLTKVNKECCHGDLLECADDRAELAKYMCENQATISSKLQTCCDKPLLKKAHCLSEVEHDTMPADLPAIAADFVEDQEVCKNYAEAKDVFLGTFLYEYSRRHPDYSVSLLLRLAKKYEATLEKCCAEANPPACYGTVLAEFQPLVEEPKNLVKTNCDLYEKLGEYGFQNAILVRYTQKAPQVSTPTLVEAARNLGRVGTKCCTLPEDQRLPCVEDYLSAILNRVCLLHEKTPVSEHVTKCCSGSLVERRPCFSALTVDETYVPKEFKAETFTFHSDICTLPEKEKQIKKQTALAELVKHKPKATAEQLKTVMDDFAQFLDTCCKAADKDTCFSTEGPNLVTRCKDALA

[2] = biological target: グリセルアルデヒド由来AGEs含有マウス血清アルブミン (Glycer-AGEs-MSA) (mouse) (UniProt P07724); experiment: SPR, Biacore T200; Glycer-AGEs-MSA amine-coupled on CM5 chip, antibody 0.8-800 nM as analyte

Row | Binder | Kd [1] [nM] | Kd [2] [nM]
1 | B1 | 47.6 | –
2 | B2 | – | 376
